In the supplement of paper PMC9112550, “Optimization of the antimicrobial peptide Bac7 by deep mutational scanning” (BMC Biology, 2022):

What follows are sequences tested on Escherichia coli TOP10 (assay: shrunken log2 fold change of peptide-encoding DNA abundance (4.5 h post-induction vs induction); higher = less antimicrobial activity (less host growth inhibition)). Details: time post-induction: 4.5 h; library: site-saturation at positions 5, 18, 19, 20.
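Also: peptides expressed intracellularly from a pBAD plasmid library in pooled LB shake-flask culture, induced with 0.3% L-arabinose, DNA abundance read by NGS, three biological replicates, DESeq2 with apeglm shrinkage.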

Sequence | shrunken log2 fold change
RRIRERPPRLPRPRPRPNLDPRP | -0.289
RRIRERPPRLPRPRPRPETNPRP | -0.000368
RRIRNRPPRLPRPRPRPKSPPRP | 0.205
RRIRDRPPRLPRPRPRPCCEPRP | 0.961
RRIRGRPPRLPRPRPRPDWMPRP | 0.235
RRIRWRPPRLPRPRPRPPISPRP | 0.172
RRIRFRPPRLPRPRPRPCTRPRP | 0.0381
RRIRVRPPRLPRPRPRPKYDPRP | -0.269
RRIRGRPPRLPRPRPRPACTPRP | 1.17
RRIRNRPPRLPRPRPRPRRQPRP | 0.227
RRIRRRPPRLPRPRPRPCTIPRP | -0.182
RRIRARPPRLPRPRPRPIQEPRP | 0.116
RRIRNRPPRLPRPRPRPDTLPRP | -0.0286
RRIRARPPRLPRPRPRPCSCPRP | 0.0516
RRIRRRPPRLPRPRPRPWSEPRP | -0.142
RRIRTRPPRLPRPRPRPLWEPRP | -0.0281
RRIRERPPRLPRPRPRPQWCPRP | -0.262
RRIRYRPPRLPRPRPRPMSEPRP | 0.0461
RRIRMRPPRLPRPRPRPIYLPRP | -0.268
RRIRNRPPRLPRPRPRPTTLPRP | -0.294
RRIRKRPPRLPRPRPRPVDPPRP | 0.417
RRIRSRPPRLPRPRPRPFWHPRP | -0.0146
RRIRMRPPRLPRPRPRPVHKPRP | -0.0081
RRIRDRPPRLPRPRPRPCSKPRP | 0.0354
RRIRPRPPRLPRPRPRPQSHPRP | -0.291

Sequence | shrunken log2 fold change
RRIRVRPPRLPRPRPRPHAFPRP | 0.0978
RRIRARPPRLPRPRPRPRDHPRP | 0.158
RRIRQRPPRLPRPRPRPPWHPRP | 0.187
RRIRKRPPRLPRPRPRPPGRPRP | 2.07
RRIRVRPPRLPRPRPRPTAPPRP | 0.175
RRIRVRPPRLPRPRPRPRCDPRP | -0.0186
RRIRLRPPRLPRPRPRPHIGPRP | -0.0255
RRIRCRPPRLPRPRPRPYAEPRP | -0.0578
RRIRDRPPRLPRPRPRPYNTPRP | -0.476
RRIRHRPPRLPRPRPRPMYQPRP | -0.00419
RRIRMRPPRLPRPRPRPLWAPRP | 0.509
RRIRDRPPRLPRPRPRPGEGPRP | 1.41
RRIRTRPPRLPRPRPRPTAGPRP | 0.59
RRIRCRPPRLPRPRPRPRWTPRP | 0.236
RRIRCRPPRLPRPRPRPAWIPRP | -0.197
RRIRMRPPRLPRPRPRPLQNPRP | 1.2
RRIRRRPPRLPRPRPRPKQIPRP | 0.289
RRIRDRPPRLPRPRPRPQCHPRP | -0.0594
RRIRPRPPRLPRPRPRPEGEPRP | 0.302
RRIRVRPPRLPRPRPRPSQRPRP | -0.0119
RRIRIRPPRLPRPRPRPFQMPRP | -0.271
RRIRPRPPRLPRPRPRPRENPRP | 0.672
RRIRPRPPRLPRPRPRPPVWPRP | 0.27
RRIRERPPRLPRPRPRPFAQPRP | -0.145
RRIRKRPPRLPRPRPRPQLPPRP | -0.105

Sequence | shrunken log2 fold change
RRIRTRPPRLPRPRPRPESHPRP | -0.164
RRIRFRPPRLPRPRPRPGTEPRP | 0.0589
RRIRHRPPRLPRPRPRPHFFPRP | -0.0737
RRIRGRPPRLPRPRPRPDRMPRP | -0.107
RRIRSRPPRLPRPRPRPGYVPRP | -0.809
RRIRSRPPRLPRPRPRPDAGPRP | 0.569
RRIRKRPPRLPRPRPRPLGAPRP | 0.58
RRIRGRPPRLPRPRPRPREHPRP | 0.783
RRIRTRPPRLPRPRPRPPVNPRP | 0.0698
RRIRPRPPRLPRPRPRPFVRPRP | -0.117
RRIRPRPPRLPRPRPRPQNFPRP | -0.0849
RRIRLRPPRLPRPRPRPFPCPRP | 0.0233
RRIRKRPPRLPRPRPRPNWAPRP | 0.279
RRIRHRPPRLPRPRPRPMLTPRP | 0.0372
RRIRCRPPRLPRPRPRPVYTPRP | -0.222
RRIRMRPPRLPRPRPRPMYNPRP | -0.815
RRIRNRPPRLPRPRPRPHMLPRP | -0.954
RRIRTRPPRLPRPRPRPQCWPRP | -0.19
RRIRRRPPRLPRPRPRPNMHPRP | 0.0848
RRIRQRPPRLPRPRPRPGQPPRP | 0.385
RRIRCRPPRLPRPRPRPQSHPRP | -0.304
RRIRHRPPRLPRPRPRPQAAPRP | -0.0209
RRIRERPPRLPRPRPRPMIIPRP | -0.317
RRIRKRPPRLPRPRPRPSTAPRP | -0.177
RRIRYRPPRLPRPRPRPLHVPRP | -0.21

Sequence | shrunken log2 fold change
RRIRWRPPRLPRPRPRPNSYPRP | -0.197
RRIRFRPPRLPRPRPRPQRIPRP | -0.695
RRIRMRPPRLPRPRPRPQFKPRP | -0.138
RRIRARPPRLPRPRPRPTKNPRP | 0.429
RRIRFRPPRLPRPRPRPFYHPRP | -0.727
RRIRERPPRLPRPRPRPQIEPRP | -0.208
RRIRKRPPRLPRPRPRPYMGPRP | -0.00674
RRIRERPPRLPRPRPRPKSGPRP | -0.136
RRIRWRPPRLPRPRPRPIPQPRP | 0.254
RRIRCRPPRLPRPRPRPSRTPRP | 0.0175
RRIRARPPRLPRPRPRPDAEPRP | 1.63
RRIRLRPPRLPRPRPRPALTPRP | 0.129
RRIRCRPPRLPRPRPRPYNWPRP | -0.917
RRIRCRPPRLPRPRPRPCASPRP | 0.0454
RRIRKRPPRLPRPRPRPLEPPRP | 0.238
RRIRPRPPRLPRPRPRPSWTPRP | -0.326
RRIRYRPPRLPRPRPRPPSRPRP | 0.232
RRIRGRPPRLPRPRPRPWWNPRP | -0.148
RRIRWRPPRLPRPRPRPIDEPRP | 0.0867
RRIRPRPPRLPRPRPRPTRKPRP | 0.483
RRIRGRPPRLPRPRPRPCRKPRP | -0.079
RRIRHRPPRLPRPRPRPNRQPRP | -0.0122
RRIRCRPPRLPRPRPRPYQAPRP | -1.11
RRIRARPPRLPRPRPRPQTNPRP | 0.36
RRIRQRPPRLPRPRPRPRISPRP | -0.176

Sequence | shrunken log2 fold change
RRIRERPPRLPRPRPRPKSCPRP | -0.00876
RRIRIRPPRLPRPRPRPENKPRP | -0.663
RRIRHRPPRLPRPRPRPNKQPRP | -0.545
RRIRARPPRLPRPRPRPYDRPRP | -0.01
RRIRVRPPRLPRPRPRPKIRPRP | 0.161
RRIRVRPPRLPRPRPRPPQVPRP | 0.377
RRIRDRPPRLPRPRPRPVAGPRP | 0.851
RRIRPRPPRLPRPRPRPSQWPRP | -0.0044
RRIRTRPPRLPRPRPRPMGCPRP | -0.145
RRIRRRPPRLPRPRPRPGQMPRP | 0.0545
RRIRQRPPRLPRPRPRPKPWPRP | 0.502
RRIRHRPPRLPRPRPRPASTPRP | -0.357
RRIRHRPPRLPRPRPRPYNEPRP | 0.0187
RRIRMRPPRLPRPRPRPTTIPRP | -0.198
RRIRYRPPRLPRPRPRPKENPRP | -0.0772
RRIRERPPRLPRPRPRPIPAPRP | -0.0833
RRIRIRPPRLPRPRPRPALEPRP | -0.0629
RRIRVRPPRLPRPRPRPGQMPRP | -0.0386
RRIRLRPPRLPRPRPRPPKPPRP | 0.555
RRIRMRPPRLPRPRPRPRQYPRP | -0.0556
RRIRWRPPRLPRPRPRPTMAPRP | 0.449
RRIRSRPPRLPRPRPRPWTKPRP | -0.137
RRIRCRPPRLPRPRPRPWKAPRP | 0.0231
RRIRVRPPRLPRPRPRPTWCPRP | 0.216
RRIRVRPPRLPRPRPRPCFVPRP | -0.253

Sequence | shrunken log2 fold change
RRIRSRPPRLPRPRPRPWPWPRP | 0.0913
RRIRARPPRLPRPRPRPHNNPRP | -0.363
RRIRDRPPRLPRPRPRPLNDPRP | -0.172
RRIRQRPPRLPRPRPRPCRDPRP | 0.0161
RRIRNRPPRLPRPRPRPGGEPRP | -0.0266
RRIRARPPRLPRPRPRPIEQPRP | 0.124
RRIRPRPPRLPRPRPRPCRVPRP | -0.309
RRIRHRPPRLPRPRPRPNMIPRP | -0.928
RRIRLRPPRLPRPRPRPQTGPRP | -0.247
RRIRWRPPRLPRPRPRPFEAPRP | 0.253
RRIRFRPPRLPRPRPRPHRHPRP | -0.333
RRIRQRPPRLPRPRPRPAHYPRP | -0.332
RRIRVRPPRLPRPRPRPGAKPRP | 0.189
RRIRNRPPRLPRPRPRPSKFPRP | -0.601
RRIRSRPPRLPRPRPRPQMNPRP | -0.227
RRIRRRPPRLPRPRPRPAVYPRP | 0.0519
RRIRHRPPRLPRPRPRPPQVPRP | -0.0255
RRIRVRPPRLPRPRPRPERCPRP | 0.187
RRIRRRPPRLPRPRPRPCMPPRP | -0.301
RRIRSRPPRLPRPRPRPSKNPRP | -0.306
RRIRQRPPRLPRPRPRPEIHPRP | -0.0415
RRIRPRPPRLPRPRPRPLTNPRP | -0.521
RRIRWRPPRLPRPRPRPTQAPRP | 1.45
RRIRGRPPRLPRPRPRPIFEPRP | 0.357
RRIRKRPPRLPRPRPRPPFCPRP | -0.0397
